Target: human TRAPPII complex (TRAPPC1, TRAPPC2, TRAPPC2L, TRAPPC3, TRAPPC4, TRAPPC5, TRAPPC6A, TRAPPC9, TRAPPC10) (human) (UniProt Q9Y5R8)

catalytic efficiency (kcat/Km) of TRAPPII-catalysed release of Mant-GDP from 4 µM Rab-His6 in solution, TRAPPII 19–300 nM: 2900 M⁻¹ s⁻¹
Substance: Rab11 (from UniProt P62491 1-216) (natural protein)

From publication PMC7719173
